From article PMC10148854, “A link between STK signalling and capsular polysaccharide synthesis in Streptococcus suis” (Nature Communications, 2023)

Tests used:
CpsB (rCpsB) = target: T1, CpsB (rCpsB) (Streptococcus suis, UniProt Q9X4U8); assay: colorimetric phosphatase assay, absorbance […] nm; assay type: biochemical; conditions: 50 nM enzyme, 16 uM pNPP, 1 mM MnCl2, 20 mM Tris pH 8.0, 150 mM NaCl, 37 °C
T1 construct: gene cps2D; rs02785 in pET-28a, His-tag, expressed in E. coli BL21(DE3), HisTrap purified; capsule locus tyrosine phosphatase (PHP type, Mn-dependent)

[1] = target: CcpS, as crystallised (Streptococcus suis); assay: crystal structure; sitting-drop vapour diffusion at 277 K; 0.1 M Tris-HCl pH 8.0, 15% ethanol; 1.6 Å; molecular replacement with IreB (PDB 5US5)
[2] = target: rCpsB-His (Streptococcus suis); assay: SPR

For `O=[N+]([O-])c1ccc(OP(=O)(O)O)cc1` [pNPP, p-nitrophenyl phosphate], the relative activity (CpsB (rCpsB)) was “Colorimetric phosphatase assays of CpsB activity were performed using p-nitrophenyl phosphate (pNPP)”.

For CcpS, as crystallised (natural protein), the stoichiometry N [1] was 2.

Work on rCcpS-T4VT7V (natural protein) yielded a fold higher affinity than rCcpS-T4ET7E [2] of over 10 fold.
